Results as given in patent US20260258115A1 (MAPP BIOPHARMACEUTICAL, published 2026).
Where a chain is given by its changes, count along the chain named.

B1: ADI-22772 (antibody, V domains shown)
VH: EVQLVESGGGVVQPGRSLRLSCAASGFTFSSYAMHWVRQAPGKGLEWVAVISYDGSNKYYADSVKGRFTISRDNSKNTLYLQMNSLRAEDTAVYYCARAVEQQLFIWYYGMDVWGQGTTVTVSS
VL: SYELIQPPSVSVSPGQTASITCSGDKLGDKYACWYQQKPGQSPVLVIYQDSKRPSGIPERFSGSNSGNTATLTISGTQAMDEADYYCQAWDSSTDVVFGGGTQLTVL
notes: full-length IgG
B2: ADI-19511 (antibody, V domains shown)
VH: QITLKESGPTLVKPTQTLTLTCTFSGFSLSTSGVGVGWIRQPPGKALEWLALIYWDDDKRYSPSLKSRLTITKDTSKNQVVLTMTNMDPVDTATYYCAHSVYYDFWSGYYVPNYFDYWGQGTLVTVSS
VL: DIQMTQSPSSLSASVGDRVTITCRASQGIRNDLGWYQQKPGKAPKRLIYAASSLQSGVPSRFSGSGSGTEFTLTISSLQPEDFATYYCLQHNSYPLTFGGGTKVEIK
notes: full-length IgG
B3: ADI-25573 (antibody, V domains shown)
VH: EVQLVESGAEVKKPGASVKVSCKASGYTFTSYYMHWVRQAPGQGLEWMGIINPSGGSTSYAQKFQGRVTMTRDTSTSTVYMELSSLRSEDTAVYYCARGPYDSSGYCDYWGQGTLVTVSS
VL: SYELMQPPSVSVAPGKTARITCGGNNIGSKSVHWYQQKPGQAPVLVVYDDSDRPSGTPERFSGSNSGNTATLTISRVEAGDEADYYCQVWDSSSDQVFGGGTKVTVL
notes: full-length IgG
B4: ADI-24793 (antibody, V domains shown)
VH: QVQLVQSGAEVKKPGESLKISCKGSGYSFTSYWIGWVRQMPGKGLEWMGIIYPGDSDTRYSPSFQGQVTISADKSISTAYLQWSSLKASDTAMFYCVMGSYSYYFDYWGQGTLVTVSS
VL: NFMLTQPHSVSESPGKTVTISCTRSSGSIASNYVQWYQQRPGSAPTTVIYEDNLRPSGVPDRFSGSIDSSSNSASLTISGLKTEDEADYYCQSYDSSNQVFGGGTKLTVL
notes: full-length IgG
B5: ADI-24846 (antibody, V domains shown)
VH: EVQLLESGGGLVKPGGSLRLSCAASGFTFSSYSMNWVRQAPGKGLEWVSSISSSSSYIYYADSVKGRFTISRDNAKNSLYLQMNSLRAEDTAVYYCARDDGILWLDYWGQGTLVTVSS
VL: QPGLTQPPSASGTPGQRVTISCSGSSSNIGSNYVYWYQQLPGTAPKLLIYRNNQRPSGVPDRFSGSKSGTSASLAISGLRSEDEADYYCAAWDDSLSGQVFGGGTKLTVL
notes: full-length IgG
B6: ADI-41594 (antibody, V domains shown)
VH: EVQLVESGGGLVKPGGSLRLSCAASGFSFSSYYMNWVRQAPGKGLEWVSSISPSSSYTNYADSVKGRFTISRDNAKDSLYLQMNSLRAEDTAVYYCARDGLLGITIFGVVQDYWGQGTLVTVSS
VL: QSVVTQPPSVSGAPGQRVTISCTGSSSNIGAGYDVHWYQQLPGTAPKLLIYGNTNRPSGVPDRFSASKSGTSASLAITGLQAEDEADYYCQSYDSSLSVVFGGGTKLTVL
B7: ADI-41563 (antibody, V domains shown)
VH: QVQLVESGPGLVKPSETLSLTCTVSDDSITNNFWTWIRQPPGKGLEWIGYIYYSGSTNYNPSLKSRITMSVDLSKNQFSLKLSSVTAADTAVYYCARLTSGGVDYWGQGTLVTVSS
VL: QSVLTQPPSLSGAPGQRVTISCTGSSSNIGADYHVHWYQQLPGTAPKLLIYQNTNRPSGVPDRFSASKSGTSVSLAITGLQAEDEADYYCQSYDSSLSAWVFGGGTKLTVL
B8: ADI-14372 (antibody, V domains shown)
VH: QVQLLESGGGLVQPGGSLRLSCAASGFTFSNYAMGWVRQAPGQGLEWVSRISATGGSTHYADSVRGRFTISRDNSKNTLYLQMNSLKAEDTAVYYCAKDRGYSRNLTPDYWGQGTLVTVSS
VL: ETTLTQSPSSLSASVGDRVTITCRASQGITNDLGWYQKKPGKAPKLLIYVASSLQSGVPSRFSGSGSGTDFTLTISSLQPEDFATYYCLQDYNYPITFGQGTKVDIK
notes: full-length IgG; also called Ab 40
B9: ADI-24803 (antibody, V domains shown)
VH: EVQLLESGGGLVLPGGSLRLSCAASGFTFSSYAMSWVRQAPGKGLEWVSAISGSGIYTYYADSVKGRFTISRDNSKNTLYLQMSSLRAEDTAVYYCAKGSLGMAYSAFDIWGLGTTVTVSS
VL: DIQLTQSPGTLSLSSGERATLSCRASQSVSSNYLAWYQQKPGQPPRLLIYGASSRATGIPDRFSGSGSGTDFTLTISRLEPEDFAVYYCQQYGSSPLTFGGGTKVDIK
notes: full-length IgG
B10: ADI-24825 (antibody, V domains shown)
VH: QVQLVQSGAEVKKPGASVKVSCKASGYTFTSYDINWVRQATGQGLEWMGWMNPNSGNTGYAQKFQGRVTMTRNTSISTAYMELSSLRSEDTAVYYCSSVGGYYYYGMDVWGQGTTVTVSS
VL: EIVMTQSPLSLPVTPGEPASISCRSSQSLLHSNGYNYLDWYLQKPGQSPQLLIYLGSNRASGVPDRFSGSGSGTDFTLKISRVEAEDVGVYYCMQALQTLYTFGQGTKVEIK
notes: full-length IgG
B11: ADI-25467 (antibody, V domains shown)
VH: GVQLVESGPGLVKPSETLSLTCTVSGGSISSYYWSWIRQPPGKGLEWIGYIYYSGSTNYNPSLKSRVTISVDTSKNQFSLKLSSVTAADTAVYYCARGYYYDSSGYYPNDAFDIWGQGTMVTVSS
VL: not shown
notes: full-length IgG
B12: ADI-25575 (antibody, V domains shown)
VH: B3 VH
VL: B3 VL with M5T, T57I, V104L
notes: full-length IgG
B13: ADI-19479 (antibody, V domains shown)
VH: QVQLVQSGAEVKKPGSSVKVSCKASGGTFSSNAINWVRQAPGQGLEWMGGIIPIFGTANYAQKFQGRVTITTDESTSTAYMELSSLRSEDTAVYYCATTFYYGSGADYWGQGTLVTVSS
VL: DIQMTQSPLSLPVTLGQPASISCRSSQSLVYSDGNMYLSWFQQRPGQSPRRLIYKVSNRDSGVPDRFSGSGSGTDFTLKISRVEAEDVGVYYCMQGTHWWTFGQGTKVEIK
notes: full-length IgG
B14: ADI-19476 (antibody, V domains shown)
VH: QVQLVESGPTLVKPTQTLTLTCTFSGFSLSTSRVGVGWIRQPPGKALEWLALIYWDDDKRYSPSLKSRLTITKDTSKNQVVLTMTNMDPVDTARYYCAHRSTYDILGGYYYFDYWGQGTLVTVSS
VL: QPVLTQPRSVSGSPGQSVTISCTGTSSDVGGYNYVSWFQQHPGKAPKLMIYDVSKRPSGVPNRFSGSKSGNTASLTISGLQAEDEADYFCCSYAGTYEVFGGGTKLTVL
notes: full-length IgG
B15: ADI-14369 (antibody, V domains shown)
VH: QVQLVQSGAEVKKPGSSVKVSCKASGGTFSSNAISWVRQAPGQGLEWMGGIIPIFATANYAQNFQDRVTITADESTGTAYMELSSLRYEDTAVYYCAKSAIHSGYHGPARSGFYQNGMDVWGQGTTVTVSS
VL: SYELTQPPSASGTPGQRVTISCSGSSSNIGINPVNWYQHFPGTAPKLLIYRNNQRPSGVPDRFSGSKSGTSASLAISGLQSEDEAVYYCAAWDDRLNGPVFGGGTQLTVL
notes: full-length IgG; also called Ab 37
B16: ADI-19486 (antibody, V domains shown)
VH: QVQLQESGPGLVKPSETLSLTCSVSGGSLTSYYWSWIRQPPGKGLEWIGYIYYSGSTNYNPSLKSRLTISVDTSKNQFSLKLSSVTAADTAVYYCARVGGRGVINVFDYWGQGTLVTVSS
VL: QPVLTQPASVSGSPGQSITISCTGTSSDVGGYNYVSWYQQHPGKAPKLMIYEVSNRPSGVSNRFSGSKSGNTASLTISGLQAEDEADYYCDSYRSNSASVVFGGGTKLTVL
notes: full-length IgG
B17: ADI-25576 (antibody, V domains shown)
VH: EVQLVESGGGLVQPGGSLRLSCAASGFTFSSYWMHWVRQAPGKGLVWVSRINSDGSSTSYADSVKGRFTISRDNAKNTLYLQMNSLRAEDTAVYYCARGLYNWNHDYWGQGTLVTVSS
VL: B4 VL with A44S, L54Q, Q99V, L107V
notes: full-length IgG; also called Ab 460
B18: ADI-19497 (antibody, V domains shown)
VH: QVQLVQSGAEVKKPGASVKVSCKASGYTFTSYYMHWVRQAPGQGLEWMGIINPSGGSTSYAQKFQGRVTMTRDTSTSTVYMELSSLRSEDTAVYYCSRGYSYGYDYWGQGTLVTVSS
VL: B4 VL with A44S, L54Q, Q99W
notes: full-length IgG
B19: ADI-19478 (antibody, V domains shown)
VH: QVQLVESGPGVVKPSETLSLTCTVSGGPVSSRSYYWGWIRQPPGKGLEWIGSIYYSGSTYYNTSLKSRVTISVDTSKNQFSLKLSSVTAADTAVYYCAKLQYSTSGFDYWGQGTLVTVSS
VL: QPVLTQPPSVSEAPRQRVTISCSGSSSNIGNNAVSWYQQLPGKAPKLLIYYDDLVPSGVSDRFSGSKSGTSASLAISGLQSEDEADYYCAAWDDSLNGVVFGGGTKLTVL
notes: full-length IgG; also called Ab 180
B20: ADI-19503 (antibody, V domains shown)
VH: QVQLVQSGAEVKKPGASVKVSCKASGYTFTSYYMHWVRQAPGQGLEWMGIINPSGGSTSYAQKFQGRVTMTRDTSTSTVYMELSSLRSEDTAVYYCARDSLVNCSGGSCPGGPDYWGQGTLVTVSS
VL: SYVLTQPPSVSVSPGQTARITCSGDALPKKYAYWYQQKSGQAPVLVIYEDSKRPSGIPERFSGSSSGTMATLTISGAQVEDEADYYCYSTDSSGNHRVFGGGTKLTVL
notes: full-length IgG
B21: ADI-14356 (antibody, V domains shown)
VH: QVQLQESGAGLLKPSETLSLTCAVYGGSFSGYYWSWIRQPPGKGLEWIGEINHSGSTNYNPSLKSRVTISVDTSKNQFSLKLSSVTAADTAVYYCARDQRIVVVGAATEPYYYYYGMDVWGQGTTVTVSS
VL: QPVLTQPPSVSVSPGQTARITCSGDALPKQYAYWYQQKPGQAPVLVIYKDSERPSGIPERFSGSSSGTTVTLTISGVQAEDEADYYCQSADSSGTYRVFGGGTKLTVL
notes: full-length IgG; also called Ab 24

Biological target: T1, RSV postfusion F (postF), subtype A (respiratory syncytial virus subtype A, UniProt P03420 26-513)
T1 construct: also called Postfusion subtype A; F deltaFP
Assay: BLI

Row | Binder | binding result
1 | B1 | no binding
2 | B2 | no binding
3 | B3 | no binding
4 | B4 | no binding
5 | B5 | no binding

Biological target: RSV F on RSV subtype A virus (RSV-A2) (Respiratory Syncytial Virus, subtype A, …, UniProt P03420 26-574)
Assay: cell-based or functional assay

Row | Binder | Neutralization - RSV A2 IC50 (pM) | neut IC50 (ug/ml) subtype A (wright) [µg/mL]
6 | B6 | 208 | 0.041
7 | B7 | 139 | 0.032

Biological target: T2, RSV postfusion F (postF), subtype B (respiratory syncytial virus subtype B)
T2 construct: also called Postfusion subtype B
Assay: BLI, IgG

Row | Binder | Kd [nM]
8 | B8 | 4.43
9 | B1 | 50.2
10 | B9 | 0.442
11 | B10 | 26
12 | B2 | 15.3
13 | B11 | 26.2
14 | B3 | 48.6
15 | B12 | 39.6
16 | B13 | 2.69
17 | B14 | 0.838
18 | B15 | 0.9
19 | B16 | 7.55
20 | B4 | 26.8
21 | B17 | 23.9
22 | B18 | 13.4
23 | B19 | 0.713
24 | B20 | 11.6
25 | B21 | 4.98
26 | B5 | 29.1

Biological target: T1, RSV postfusion F (postF), subtype A
Assay: BLI, IgG

Row | Binder | Kd [nM]
27 | B8 | 0.659
28 | B9 | 1.2
29 | B10 | 30.1
30 | B11 | 25.3
31 | B13 | 3.69
32 | B14 | 0.801
33 | B16 | 0.525

Biological target: T3, RSV prefusion F (preF), subtype B (respiratory syncytial virus subtype B)
T3 construct: also called Prefusion subtype B
Assay: BLI, IgG

Row | Binder | Kd [nM]
34 | B15 | 3.38
35 | B21 | 13

Biological target: RSV F on RSV subtype A virus (mKate-RSV A2) (respiratory syncytial virus A2, UniProt P03420 26-574)
Assay: cell-based or functional assay

Row | Binder | Neut IC50 subtype A [µg/mL]
36 | B12 | 5.64
